Reference: the DeepSol protein solubility set

Assay: soluble on expression in E. coli; label from the status in PepcDB or PDB records

Sequence | soluble on expression in E. coli
MGSDKIHHHHHHMDKYTALIHDENFSTLTLNVSRYPKSLAYWEKLLNYIVKASAPICKSTEPQLLKLIRCTYSSMLNEFPYLENYYIDFALLEYKLGNVSMSHKIFQRGLQAFNQRSLLLWTSYLKFCNNVISHQKQLFKKYETAEEYVGLHFFSGEFWDLYLEQISSRCTSSKKYWNVLRKILEIPLHSFSKFYALWLQRIDDIMDLKQLSQLTSKDELLKKLKIDINYSGRKGPYLQDAKKKLKKITKEMYMVVQYQVLEIYSIFESKIYINYYTSPETLVSSDEIETWIKYLDYTITLQTDSLTHLNFQRALLPLAHYDLVWIKYSKWLINSKNDLLGAKNVLLMGLKFSLKKTEIIKLLYSVICKLNEYVLLRNLLEKIESSYSDNVENVDDFEIFWDYLQFKTFCQNSLYSSRYSDSQSNGLLNKELFDKVWKRLSCKEKKSGQEILLNNLVQFYSKDTVEFVEKNIFQKIIEFGWEYYLQNGMFWNCYCRLIYFDTSRSYLDKRQYIVRKIWPQIDKKFAQSVLPSLTEFCESYFPEEMDTLEEMFTEEP | not soluble
MSLTTVLGIETSCDETGVGIARLDPDGTVTLLADEVASSVDEHVRFGGVVPEIASRAHLEALGPAMRRALAAAGLKQPDIVAATIGPGLAGALLVGVAAAKAYSAAWGVPFYAVNHLGGHLAADVYEHGPLPECVALLVSGGHTHLLHVRSLGEPIIELGSTVDDAAGEAYDKVARLLGLGYPGGKALDDLARTGDRDAIVFPRGMSGPADDRYAFSFSGLKTAVARYVESHAADPGFRTADIAAGFQEAVADVLTMKAVRAATALGVSTLLIAGGVAANSRLRELATQRCGEAGRTLRIPSPRLCTDNGAMIAAFAAQLVAAGAPPSPLDVPSDPGLPVMQGQVEGHHHHHH | soluble
MYQEFFTFIPVDIEELDKAFGGGLIRGATISIMYDAFSLGWALGFEMVKNLIRRNSFGVIHNYNLPTIKLISRASFVGLNIQELAKRKEIMILDVFGSKYDVPPYADYVLQVPNPTPETLNPKIESVYENKIFQVAGDRRIVKLVYTLDGVATMFGEEVAIKLLNGELAWLAKMYGKRNVMTILLLNVDMVSKKFIAWTSGVSDIVITFQSLTEEREGELVERMTVIKSLNPEFEPTSYEFRVTATGTGSHALDFRKIENKRDK | soluble
GSNKLHLRVVTLIEHPFVFTREVDDEGLCPAGQLCLDPMTNDSSMLDRLFSSLHSSNDTVPIKFKKCCYGYCIDLLEQLAEDMNFDFDLYIVGDGKYGAWKNGHWTGLVGDLLSGTANMAVTSFSINTARSQVIDFTSPFFSTSLGILVRTRGTELSGIHDPKLHHPSQGFRFGTVRESSAEDYVRQSFPEMHEYMRRYNVPATPDGVQYLKNDPEKLDAFIMDKALLDYEVSIDADCKLLTVGKPFAIEGYGIGLPPNSPLTSNISELISQYKSHGFMDVLHDKWYKVVPCGK | soluble
GPGSMALPRLQMFALASRIEELVLDSVTVHPHSVVAIGNAERQGNGQPPPPSNWVPLSDLASLQKLRRLDMTNCKGDFDCAGIARCCFLRSVHLSGCNVKDADVPHLAQLPCVEELLLSRTRITNVQALAAGKGLRIIQLSNAQVDSDGIDGLQTLPYLTRLDLSSTLVSDVNCLGQSQSLIYLNLAKTHVTSEGIAGLSRLLTLEHLMLNNNNIRDVSFLAESHSLKTLSLQSTLVDSAGLEGLGRLRTLQDLSLAHTRVTNVTKLQHCRNLWRLDLQGSFVDQAGIVGLERLPKLRVLVLSKTDVASLELILKSESLEQLEVKFSHVNERSAFFGVTKASALTDVTLTHCDVSDINNLGMCKELRLLNVWSSKVTSEGIAGLCDARSLQEVDLAETAVTDISPLLSCTKIQALILYRSSVRSLDGIGALQQLRRLDIAETSVSSIRSLSACQRLEILNLSNTAVDDDGFQGIGQAQSLKVVSMSFTAITQVGQLGQCSHLEELHAQSCPVTSEGLVGLERACCLVKLNLSYTKLQSGIQRLTNCRKLLKLNVKFTEVPYDEVAYVKRHLPSCRVMNDAAQRMAKDVTLLT | not soluble
TTATRQEVLGLYRSIFRLARKWQATSGQMEDTIKEKQYILNEARTLFRKNKNLTDTDLIKQCIDECTARIEIGLHY | soluble
MGSDKIHHHHHHMITGFASSLYKKYEGSTFELLADTVFSALEMAGLDKNYVDGIYLTYLPGTFDGYANSHFFTNQVAQYLGIRPKFTQIFDYGGASALSMIHRAYKAIKAGEGETILCIVGGKATELRNKGVTVDAIDKAYPNVSLTPFDRLFRGLNDLNPVSDYALVANRHKYLFKSTDEQRALIAVRQRFNAMQNSKAMFKDPLTIEQVLKSPLVSYPLHLLEIVYPIDGFHVFVVSKRSSKSALTNIDILGYGEAHWPFMPTELDEIVYTPAVESSKGLLNGRIDAFELYDSFTITVMLQVEDIGLAEKGKGGSFFENHDTTFKGDVPINTGGGSLNTGQPAYMSGGVILEEALLQLNDMADGHQVKGTDVVFLNGIGGWNRSHSVSLVLGEKK | not soluble
MSLNTYLNEISKFVDENREEIVSLWKEIVNMESYTHCKESVNKLAERLKLEFEKEGLDCELVDVGDNGSTLIGTLGSNIDKKPIIFSGHMDTVFETGTFGENPFKIIEGKAYGPGVLDMKGGIIISLYVIKALNKIGYKERPIKIVFSGDEEIGHKDSTGADVILREAKGGLCAFNMETGLVDNSLCVGRKGRIGCNIHVKGVETHAGNDFEGGRNAIEEMANKILRIQKLTNLDVGTTVSVSVIKGGRVENSIPEDCSIKVDLRFEKVEEMENVKEQVREICKETYIEGTSTEVNFISEMMPFETTEDVMRFHTFVNEVSKENGFGELNAKRLGGSSDASYLTIANVPTICSFGVRGEWNHTSREYAVVDSMFERVKLISTVILNLDKFEEGHHHHHH | soluble
MKLFQVLIISMICLALVEERRDRSNRRRNQSEGGSRSRSESWLGSSGSSRSRSSGRSAASAGSSQAASPAGASAIGSSQAGSSAGSPAAAAAGGSGGADAGAILNGVGGLMRSVGGLAGAAGGAAGGAAGAPAGAPAGASAGASAAPAAQDAGTVLGGVSGVLTGVSGIVSAAGAAKA | not soluble
MGSDKIHHHHHHMNTFPAVLIGGPPHSGKSVLTYLLTQYLRQRGIEHYVLRACPDGEGDWSQESTPDLVRLLRQKGAFDRTFVDRVCRDIEQRHLPLLVDVGGRPTLDQERIIQRCTHAIVLSATPQGMDEWRNRVEQYGLIIVAELHSELHGSDQIEVEKPVLRGVISGLERNAPTGGIVVEALANRLARLMHYDQAELVQQHLQRAPAELVVDLDRLARQMWVEATQRRWIPPDLPQILDSIPAKTPLAIYGRGPNWLYAALAGHTAPAPFSLFDPRLGWAQAQSLRRVPQPVADVIRWQTREEQDYTLLKAHLLEPYLDYDDLSALTVPRLDPQRGVVVSGKLPFWLLTSLIVTYHEHPWLAVIQPQLNPNSVIIFSRCEDYRPGNSIQVVLD | not soluble
MGSDKIHHHHHHMSYQIEIGSIRCFVVAAEELHFRRAAIRLNMSQPTLSQQIKRLEELMGVQLFIRSTRRVDLTRAGASFLDHARDILLKIDEAILNAKLEAGGLSPGGEELIIGAISPATSQLLPLILSRFRQRFPRTRLAIKEVDSIELLRGIERGDFHVGLMRPPSNSNLVRFRHLLSERFVAVMPRQSALARKPALRLSDFAGHGVFALKRFELSCFETVYEQLSGAGLLIENDIAVSDTNTALALVTAGAGITFLPEWVSAMAPDGVVTRVVDDMSVEISMAVGWNPDCPVPGILPFVEFATLAAQNLISARK | not soluble
MAGEGQIRLTDSCVQRLLEITEGSEFLRLQVEGGGCSGFQYKFSLDTVINPDDRVFEQGGARVVVDSDSLAFVKGAQVDFSQELIRSSFQVLNNPQAQQGCSCGSSFSIKL | soluble
MGSDKIHHHHHHMLKKQLFADRLLAQMPSLRALRCFVTAARYESFTQAAEVLCVTQAAVSRQIKELEDSLDVALFERTGRHIALTDAGRILYNASYLSIMNIAEAAEAVRRTDKHALMICVSHTFSALWLSSRLPAFRERFPDIRLNLIVTEHFMELDGLIEPDVIITKNPPREPEFDVEPMFHDIVYPVCSPAFHERHFHGRSLKPLDLLSRPTLNLSMLGRAQVCEHVDWRVWRNWFQQGDGTDTLTENKYLESNDYRLLVAQAEAGEGTLLGWHHLVHRQIDQGILMRPVQDVLVFRDRHHYLITHRNAQPRPEYQQFRQWLNDEVGVMMRGWLDAGVEGEQ | not soluble
MAHHHHHHMWSPSNKRDSLINSDDTFFPFLFHFPGSHPRQMLSSFFASRSRGSWIPAVDISEQDDGYILVADLPEVKKEDLRVYTESSSIICISGNRKHILKQDEHQLLVAERGAGRFERCFDLPTSVDSSKIKASFNDQQLNLSIPKLRNSKSGASNSVTID | soluble
MRKTKTEALKTKEHLMLAALETFYRKGIARTSLNEIAQAAGVTRGALYWHFKNKEDLFDALFQRICDDIENCIAQDAEDAEGGSWAVFRHTLLHFFERLQSNDIYYKFHNILFLKCEHTEQNAAVIAIARKHQAIWREKITAVLTEAVENQDLADDLDKETAVIFIKSTLDGLIWRWFSSCERFDLGKTAPRIIGIMMDNLENHPDLRRK | soluble
MNVLVIEDDKVFRGLLEEYLSMKGIKVESAERGKEAYKLLSEKHFNVVLLDLLLPDVNGLEILKWIKERSPETEVIVITGHGTIKTAVEAMKMGAYDFLTKPCMLEEIELTINKAIEHRKLRKENELLRREKDLKEEEYVFESPKMKEILEKIKKISCAECPVLITGESGVGKEVVARLIHKLSDRSKEPFVALNVASIPRDIFEAELFGYEKGAFTGAVSSKEGFFELADGGTLFLDEIGELSLEAQAKLLRVIESGKFYRLGGRKEIEVNVRILAATNRNIKELVKEGKFREDLYYRLGVIEIEIPPLRERKEDIIPLANHFLKKFSRKYAKEVEGFTKSAQELLLSYPWYGNVRELKNVIERAVLFSEGKFIDRGELSCLVNSK | soluble
MASKRIIRMSDLLHTTPVFNRGYRFQWEQAQQSYVILYPEGLVRLNESATLILKQIDGKLTVHDIIQNLSAQFPDATGLDQDIVEFLKQAESRQWICLQ | not soluble
MSLIDIHNHILPNIDDGPTNETEMMDLLKQATTQGVTEIIVTSHHLHPRYTTPIEKVKSCLNHIESLEEVQALNLKFYYGQEIRITDQILNDIDRKVITGINDSRYLLIEFPSNEVPHYTDQLFFELQSKGFVPIIAHPERNKAISQNLDILYDLINKGALSQVTTASLAGISGKKIRKLAIQMIENNLTHFIGSDAHNTEIRPFLMKDLFNDKKLRDYYEDMNGFISNAKLVVDDKKIPKRMPQQDYKQKRWFGLEGHHHHHH | soluble
AAGAAPVDISTLPRVKVDLVKPPFVHAHDQVAKTGPRVVEFTMTIEEKKLVIDREGTEIHAMTFNGSVPGPLMVVHENDYVELRLINPDTNTLLHNIDFHAATGALGGGALTQVNPGEETTLRFKATKPGVFVYHCAPEGMVPWHVTSGMNGAIMVLPRDGLKDEKGQPLTYDKIYYVGEQDFYVPKDEAGNYKKYETPGEAYEDAVKAMRTLTPTHIVFNGAVGALTGDHALTAAVGERVLVVHSQANRDTRPHLEGGHGDYVWATGKFRNPPDLDQETWLIPGGTAGAAFYTFRQPGVYAYVNHNLIEAFELGAAGHFKVTGEWNDDLMTSVVKPASM | soluble
MECGLGGAGQPAVEAEGVWKRLGGRWVLKDVSLTVPRGSVYGVVGPNGAGKTTLFRTLLGLYRADRGRVALLGEPVERAGGSLFRRVAYLPEDGEPYRNMTGHEFLRLYASIYGVEDLEGYLEEASRLSGLGGRLGERVRSYSKGMRRRLLVAAMLALKPSLAVLDEPTAGLDPVYSVGIRRLLKEYSERHGVTVLLSSHNMYEVESVCSEITMISSGRIVYSGSPGEAVRRTGASSLEEAYVALVTGGGGES | soluble
MMCSTVISQLGFECHPIGKTLRIISPFTYCDDGEHVGAFIREVNGRYLVSDRCDALMNMEARGISLTKKRLDEIRQLLLKEGAELNARGEIIAWATEKDVGAITSNIIRAGILASTLSLDWYQPVQAEKFESMVIDYLYHTELRDALSLRENVYGLSGHQITVPVTIKTDIPKYVFTSSVKHGGSWNSAYSLLGKLIDLKASSEEYNNRFVVIDSEAIGDQMQQLSLLFHESSQVLPFSKRETWVKRLAA | not soluble
